The results in this text go back to article doi:10.1101/2021.09.17.460839.

The target of the data set is T1, Rv0792c (Mycobacterium tuberculosis) (UniProt O86331).
T1 sequence: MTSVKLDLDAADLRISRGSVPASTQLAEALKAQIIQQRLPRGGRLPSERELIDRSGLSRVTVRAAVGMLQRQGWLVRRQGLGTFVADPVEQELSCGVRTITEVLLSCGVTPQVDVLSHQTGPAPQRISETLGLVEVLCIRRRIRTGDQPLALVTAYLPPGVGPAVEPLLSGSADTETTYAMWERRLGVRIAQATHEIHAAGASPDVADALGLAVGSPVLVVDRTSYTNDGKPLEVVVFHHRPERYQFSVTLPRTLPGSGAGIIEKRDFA
In words: ALISA.

“TAGGGTCTCGGATCGGAGGGATGGGCAGTGTGTGCGGTATGTTG [Rv0792c_5 aptamer (printed Rv0729c_5)]” returned a binding signal of 90 % reduction.

With “TCGTATTCATCTCTACATCCGGTAATCCGCACATGAGTAATCC [Rv0792c_1 aptamer (printed Rv0729c_1)]”, the binding signal amounted to 90 % reduction. With “TCTAGTCATTCGTCATAATCCCATCTGTTTCTTCCTCCTTCCGT [Rv0792c_2 aptamer (printed Rv0729c_2)]”, the Kd was determined as 51 nM. That is a double-digit nanomolar value.
